From paper PMC11257983 (2024)

B1: Flag-CNK^2–549 [Drosophila] / GST-HYP [Drosophila] (parent complex)
chain 1: AYINIAEWTPDQVTDWIKGLDESMKGYLYEFSKQEIGGRALLNIRPYELENLGMLRIGHQEIVLEAVENLRNFHYHLKNDNLQFMALHVATAAKNLHRELARNHAESTKIDTRILHDITRTIATLKPLVGSLERTPFRKQEMYREYCGNVLKCGLELATIAHRDRFALQPVPAIRQSAERLENLANFVIQDISDPMVLQPASLNLVTLKKRESELGFNIESSYNGIHRVTDIKYNSPAHNSGKIEDGDEIVQINYQTVVGWQHRTVLEHLREALPDVVLTVKKRPKHTKMFGQIYMQPYRLPSKKRNMAARWAAQMPSPRAAFLTLDTEQLATGGTGSAVPDPSKSLSSEKREVLTKANPVSSASDSDSSCSDIPTPTDPKLAAREIRLYYPKPRALLQRRNTICGCEYLSLKNSDLVVPSWHERKPGIGSPTNCDPGSPSIRDKSISFGYGLEMAARPTTCIGIAGDTSTDKARRMFHEARKLKQLTEDSQREFLVDRYKPGVSKVVRFDAKEDYVMKNEKFICNVENTILETFEPIPFADEGDEDA
chain 2: MGEETINSTQNKTRTKTTRPKAVYLWTVSDVLKWYRRHCGEYTQYEQLFAQHDITGRALLRITDSSLQRMGVTDNRDREAIWREIVKQRLKTDIMEIRDMERLNIY

Variants of: B1
Assay: GST pull-down, immunoblot quantification; S2 cells; only GST-HYP and Flag-CNK2–549 co-expressed; anti-Flag blot; parent: 1
For chain 1 AYINIAEWTPDQVTDWIKGLDESMKGYLYEFSKQEIGGRALLNIRPYELENLGMLRIGHQEIVLEAVENLRNFHYHLKNDNLQFMALHVATAAKNLHRELARNHAESTKIDTRILHDITRTDATLKPLVGSLERTPFRKQEMYREYCGNVLKCGLELATIAHRDRFALQPVPAIRQSAERLENLANFVIQDISDPMVLQPASLNLVTLKKRESELGFNIESSYNGIHRVTDIKYNSPAHNSGKIEDGDEIVQINYQTVVGWQHRTVLEHLREALPDVVLTVKKRPKHTKMFGQIYMQPYRLPSKKRNMAARWAAQMPSPRAAFLTLDTEQLATGGTGSAVPDPSKSLSSEKREVLTKANPVSSASDSDSSCSDIPTPTDPKLAAREIRLYYPKPRALLQRRNTICGCEYLSLKNSDLVVPSWHERKPGIGSPTNCDPGSPSIRDKSISFGYGLEMAARPTTCIGIAGDTSTDKARRMFHEARKLKQLTEDSQREFLVDRYKPGVSKVVRFDAKEDYVMKNEKFICNVENTILETFEPIPFADEGDEDA [chain 1 I122D], the ratio to parent was 0.17.

Variants of: B1
Assay: GST pull-down, immunoblot quantification; S2 cells; GST-HYP, Flag-CNK2–549 + RRKM co-expressed; anti-Flag (CNK) blot; parent: 1
For chain 1 AYINIAEWTPDQVTDWIKGLDESMKGYLYEFSKQEIGGRALLNIRPYELENLGMLRIGHQEIVLEAVENLRNFHYHLKNDNLQFMALHVATAAKNLHRELARNHAESTKIDTRILHDITRTDATLKPLVGSLERTPFRKQEMYREYCGNVLKCGLELATIAHRDRFALQPVPAIRQSAERLENLANFVIQDISDPMVLQPASLNLVTLKKRESELGFNIESSYNGIHRVTDIKYNSPAHNSGKIEDGDEIVQINYQTVVGWQHRTVLEHLREALPDVVLTVKKRPKHTKMFGQIYMQPYRLPSKKRNMAARWAAQMPSPRAAFLTLDTEQLATGGTGSAVPDPSKSLSSEKREVLTKANPVSSASDSDSSCSDIPTPTDPKLAAREIRLYYPKPRALLQRRNTICGCEYLSLKNSDLVVPSWHERKPGIGSPTNCDPGSPSIRDKSISFGYGLEMAARPTTCIGIAGDTSTDKARRMFHEARKLKQLTEDSQREFLVDRYKPGVSKVVRFDAKEDYVMKNEKFICNVENTILETFEPIPFADEGDEDA [chain 1 I122D], the ratio to parent was 0.63.

Variants of: B1
Assay: GST pull-down, immunoblot quantification; S2 cells; GST-HYP + RRKM co-expressed; anti-Flag (CNK) blot; parent: 1
chain 1 AYINIAEWTPDQVTDWIKGLDESMKGYLYEFSKQEIGGRALLNIRPYELENLGMLRIGHQEIVLEAVENLRNFHYHLKNDNLQFMALHVATAAKNLHRELARNHAESTKIDTRILHDITRTIATLKPLVGSLERTPFRKQEMYREYCGNVLKCGLELATIAHRDRFALQPVPAIRQSAERLENLANFVIQDISDPMVLQPASLNLVTLKKRESELGFNIESSYNGIHRVTDIKYNSPAHNSGKIEDGDRIVQINYQTVVGWQHRTVLEHLREALPDVVLTVKKRPKHTKMFGQIYMQPYRLPSKKRNMAARWAAQMPSPRAAFLTLDTEQLATGGTGSAVPDPSKSLSSEKREVLTKANPVSSASDSDSSCSDIPTPTDPKLAAREIRLYYPKPRALLQRRNTICGCEYLSLKNSDLVVPSWHERKPGIGSPTNCDPGSPSIRDKSISFGYGLEMAARPTTCIGIAGDTSTDKARRMFHEARKLKQLTEDSQREFLVDRYKPGVSKVVRFDAKEDYVMKNEKFICNVENTILETFEPIPFADEGDEDA [chain 1 E249R] showed a ratio to parent of 0.84. With chain 1 AYINIAEWTPDQVTDWIKGLDESMKGYLYEFSKQEIGGRALLNIRPYELENLGMLRIGHQEIVLEFVENLRNFHYHLKNDNLQFMALHVATAAKNLHRELARNHAESTKIDTRILHDITRTIATLKPLVGSLERTPFRKQEMYREYCGNVLKCGLELATIAHRDRFALQPVPAIRQSAERLENLANFVIQDISDPMVLQPASLNLVTLKKRESELGFNIESSYNGIHRVTDIKYNSPAHNSGKIEDGDEIVQINYQTVVGWQHRTVLEHLREALPDVVLTVKKRPKHTKMFGQIYMQPYRLPSKKRNMAARWAAQMPSPRAAFLTLDTEQLATGGTGSAVPDPSKSLSSEKREVLTKANPVSSASDSDSSCSDIPTPTDPKLAAREIRLYYPKPRALLQRRNTICGCEYLSLKNSDLVVPSWHERKPGIGSPTNCDPGSPSIRDKSISFGYGLEMAARPTTCIGIAGDTSTDKARRMFHEARKLKQLTEDSQREFLVDRYKPGVSKVVRFDAKEDYVMKNEKFICNVENTILETFEPIPFADEGDEDA [chain 1 A66F] the ratio to parent was 0.87.

Variants of: B1
Assay: GST pull-down, immunoblot quantification; S2 cells; only Flag-CNK2–549 and GST-HYP co-expressed; anti-Flag blot; parent: 1
chain 1 AYINIAEWTPDQVTDWIKGLDESMKGYLYEFSKQEIGGRALLNIRPYELENLGMLRIGHQEIVLEAVENLRNFHYHLKNDNLQFMALHVATAAKNLHRELARNHAESTKIDTRILHDITRTIATLKPLVGSLERTPFRKQEMYREYCGNVLKCGLELATIAHRDRFALQPVPAIRQSAERLENLANFVIQDISDPMVLQPASLNLVTLKKRESELGFNIESSYNGIHRVTDIKYNSPAHNSGKIEDGDRIVQINYQTVVGWQHRTVLEHLREALPDVVLTVKKRPKHTKMFGQIYMQPYRLPSKKRNMAARWAAQMPSPRAAFLTLDTEQLATGGTGSAVPDPSKSLSSEKREVLTKANPVSSASDSDSSCSDIPTPTDPKLAAREIRLYYPKPRALLQRRNTICGCEYLSLKNSDLVVPSWHERKPGIGSPTNCDPGSPSIRDKSISFGYGLEMAARPTTCIGIAGDTSTDKARRMFHEARKLKQLTEDSQREFLVDRYKPGVSKVVRFDAKEDYVMKNEKFICNVENTILETFEPIPFADEGDEDA [chain 1 E249R] was tested, and the ratio to parent was 0.75. In the case of chain 1 AYINIAEWTPDQVTDWIKGLDESMKGYLYEFSKQEIGGRALLNIRPYELENLGMLRIGHQEIVLEFVENLRNFHYHLKNDNLQFMALHVATAAKNLHRELARNHAESTKIDTRILHDITRTIATLKPLVGSLERTPFRKQEMYREYCGNVLKCGLELATIAHRDRFALQPVPAIRQSAERLENLANFVIQDISDPMVLQPASLNLVTLKKRESELGFNIESSYNGIHRVTDIKYNSPAHNSGKIEDGDEIVQINYQTVVGWQHRTVLEHLREALPDVVLTVKKRPKHTKMFGQIYMQPYRLPSKKRNMAARWAAQMPSPRAAFLTLDTEQLATGGTGSAVPDPSKSLSSEKREVLTKANPVSSASDSDSSCSDIPTPTDPKLAAREIRLYYPKPRALLQRRNTICGCEYLSLKNSDLVVPSWHERKPGIGSPTNCDPGSPSIRDKSISFGYGLEMAARPTTCIGIAGDTSTDKARRMFHEARKLKQLTEDSQREFLVDRYKPGVSKVVRFDAKEDYVMKNEKFICNVENTILETFEPIPFADEGDEDA [chain 1 A66F], the ratio to parent is reported as 0.29.
